What follows are sequences tested on c-Src (assay: phosphorylation enrichment, bacterial display (enrichment ratio); higher = better substrate or ligand; peptides without Tyr show the background).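 Also: 11-residue human phosphosite peptides and single-mutation variants displayed on the E. coli surface, counted by deep sequencing, each peptide's frequency after selection divided by its frequency in the unselected input library; frequency after pTyr selection over input frequency; kinase dosed for 20-30% of maximal phosphorylation in three min.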
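For SH2 binding enrichment of the phosphorylated peptide, bacterial display in this document: peptide library displayed on the E. coli surface as eCPX fusions, selected cells deep-sequenced, score is each peptide's frequency after selection divided by its frequency in the input.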

Sequence | phosphorylation enrichment
GYKVRYATWSI [FGFR1_Y210] | 0.582
SGPRRYTMAAL [TTR_Y125_I127M] | 0.533
DERQPYAHMNG [IGF1R_Y1346] | 0.376
VATSWYRSPEL [CDKL5_Y177_R175S] | 0.344
DEWFLYKMRDI [CPS1_Y879_K875E] | 0.816
AFHGEYIPTVF [RAC2_Y32_P29H] | 0.419
REENGYNTYAS [FGF10_Y161_I156R] | 0.9
WFISFYPQVIM [CTNS_Y143_S139F] | 0.359
AFQGKYTPSGQ [ALDOA_Y343_C339Y_YF] | 0.298
AKKVFYVNETR [SHH_Y253_I255N] | 0.319
ESTPLYPMLFG [SCLY_Y280_F276S] | 0.47
EFISEHCGEII [EZH2_Y641_Y641H] | 0.56
KELAPYDENRF [RPS19_Y48_W52R] | 0.577
LALTVYADCLA [ABCA4_Y2063_G2059A] | 0.62
ETKENYGKTLK [CHL1_Y291] | 0.433
RHPLDYLRQFP [NARS2_Y138_E137D_YF] | 0.609
LASSEYPVRRR [GALK1_Y236] | 0.572

Sequence | phosphorylation enrichment
QEIATYRPLLE [KRT14_Y415_R417P] | 0.705
QGLRLYRPHLA [BTK_Y617] | 0.438
HNLDYYKMTTN [FGFR3_Y648_K650M] | 0.894
SVTCTYSAALN [TP53_Y126_P128A] | 0.836
PEVRRCVLPLN [RPE65_Y368_Y368C] | 0.586
LARHMYDKEYY [MET_Y1230_D1228H] | 0.73
RLFARYFQGDL [PDK3_Y337_YF] | 0.481
DRPASYLDKVR [KRT17_Y98_L95P] | 0.474
VRRRSYSAGNA [KANK1_Y324_K321R] | 0.58
ALAAPYVLFPS [CEFIP_Y1332_G1337S_YF] | 5
GCCSWYRGWAP [TIMP3_Y195_Y191C] | 3.1
DEEYEYMNRRR [ERBB3_Y1199] | 0.454
EVTQDYGLDPK [FH_Y110_N107T] | 0.504
VVQGIYGYHHH [UFSP2_Y285_Y290H] | 9.1
PVRIAYDRPRG [SUGP2_Y985] | 0.609
LNNIIYRVERA [CUX2_Y1470] | 1.33

Each sequence was assayed against Grb2 SH2 (UniProt P62993) (assay: SH2 binding enrichment of the phosphorylated peptide, bacterial display (enrichment ratio); higher = better substrate or ligand; peptides without Tyr show the background).
Sequence of Grb2 SH2 (P62993 whole entry, looked up): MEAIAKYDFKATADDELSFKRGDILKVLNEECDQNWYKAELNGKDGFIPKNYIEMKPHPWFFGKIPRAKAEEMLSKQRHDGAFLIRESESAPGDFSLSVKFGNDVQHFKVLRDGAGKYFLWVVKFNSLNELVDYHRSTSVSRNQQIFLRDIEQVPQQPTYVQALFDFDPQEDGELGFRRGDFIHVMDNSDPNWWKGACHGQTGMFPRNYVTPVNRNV

Sequence | SH2 binding enrichment
GYKVRYATWSI [FGFR1_Y210] | 1.39
SGPRRYTMAAL [TTR_Y125_I127M] | 0.787
DERQPYAHMNG [IGF1R_Y1346] | 0.729
VATSWYRSPEL [CDKL5_Y177_R175S] | 0.827
DEWFLYKMRDI [CPS1_Y879_K875E] | 0.653
AFHGEYIPTVF [RAC2_Y32_P29H] | 0.91
REENGYNTYAS [FGF10_Y161_I156R] | 0.673
WFISFYPQVIM [CTNS_Y143_S139F] | 0.684
AFQGKYTPSGQ [ALDOA_Y343_C339Y_YF] | 0.759
AKKVFYVNETR [SHH_Y253_I255N] | 4.17
ESTPLYPMLFG [SCLY_Y280_F276S] | 0.931
EFISEHCGEII [EZH2_Y641_Y641H] | 0.831
KELAPYDENRF [RPS19_Y48_W52R] | 0.896
LALTVYADCLA [ABCA4_Y2063_G2059A] | 0.624
ETKENYGKTLK [CHL1_Y291] | 1.16
RHPLDYLRQFP [NARS2_Y138_E137D_YF] | 1.05
LASSEYPVRRR [GALK1_Y236] | 0.512

Sequence | SH2 binding enrichment
QEIATYRPLLE [KRT14_Y415_R417P] | 0.647
QGLRLYRPHLA [BTK_Y617] | 1.4
HNLDYYKMTTN [FGFR3_Y648_K650M] | 0.756
SVTCTYSAALN [TP53_Y126_P128A] | 0.686
PEVRRCVLPLN [RPE65_Y368_Y368C] | 0.926
LARHMYDKEYY [MET_Y1230_D1228H] | 1.25
RLFARYFQGDL [PDK3_Y337_YF] | 0.713
DRPASYLDKVR [KRT17_Y98_L95P] | 0.828
VRRRSYSAGNA [KANK1_Y324_K321R] | 0.706
ALAAPYVLFPS [CEFIP_Y1332_G1337S_YF] | 0.968
GCCSWYRGWAP [TIMP3_Y195_Y191C] | 1.56
DEEYEYMNRRR [ERBB3_Y1199] | 0.837
EVTQDYGLDPK [FH_Y110_N107T] | 0.672
VVQGIYGYHHH [UFSP2_Y285_Y290H] | 1.11
PVRIAYDRPRG [SUGP2_Y985] | 0.641
LNNIIYRVERA [CUX2_Y1470] | 1.13
